# Experiments:
# OhrR [1] = molecular target: T1, OhrR (Bacillus subtilis, UniProt O34777); experiment: Biochip detection of LMW biothiols (His6-tag OhrR, HisProbe-HRP, TMB absorbance at 450 nm); format: biochemical; conditions: same concentration (final 100 μM biothiol), CHP final 5 μM, 10 minutes
# T1 construct: made in house
# Procedure: A biochip method is for […] using His6-tag of OhrR, rather than by labeling with fluorescence or a DNAzyme, according to a principle that OhrR is detached from dsDNA attached to the surface of a biochip in the presence of LMW biothiols, thereby reducing a detection signal.
# 150 μL of 5 mg/mL NeutrAvidin® (Thermo Scientific, USA) diluted with a coating buffer (100 mM Na2HPO4, 50 mM citric acid) was put into each well of a transparent 96-well plate, and reacted at 37° C. for 4 to 5 hours, and then an unbound residue was washed with TBS four times. After washing, 300 μL of a Seablock blocking buffer (Thermo Scientific, USA) was put into each well and shaken at room temperature for 2 hours for blocking (process of coating NeutrAvidin-unbound surface to prevent non-specific reaction), followed by re-washing with TBS four times. […]
# (§1) 50 μL of one of CHP (final 5 μM) and a LMW biothiol (final 100 μM for each of L-cysteine, homocysteine and GSH) was simultaneously put into each well using the biochip to which biotin-dsDNA and His6-tag OhrR were fixed to the NeutrAvidin-coated plate, reacted at room temperature for 10 minutes, and washed with TBS for 4 times. […] After 5 minutes, 2M sulfuric acid was added to stop the reaction, and absorbance was measured at 450 nm. […]
# OhrR [2] = molecular target: T1, OhrR; experiment: OhrR-biothiol binding by MALDI-TOF MS; parameters: species or system B. subtilis; conditions: 300 nM OhrR, 3 μM CHP
# Procedure: It was confirmed whether it is possible to quantitatively analyze the binding of OhrR and a biothiol using a Matrix-Assisted Laser Desorption Ionization-Time-of-Flight Mass Spectrometry (MALDI-TOF mass spectrometer; MALDI-TOF MS).
# 1 mL of a 300 nM OhrR-containing buffer (20 mM Tris (pH 8.0), 100 mM NaCl, 5% Glycerol) was mixed with a biothiol (Cys, Hcy or GSH) at each concentration (0, 1, 2, 4, 8, 16, 32, or 64 μM). After 3 μM CHP reacted with each resulting mixture for 2 minutes, 110 μL of 100% TCA was treated to stop the oxidation reaction, and precipitate OhrR. To alkylate the precipitated OhrR, 50 mM iodoacetamide was treated, thereby blocking a cysteine residue of the reduced OhrR. The protein was isolated by sodium dodecyl sulphate-polyacrylamide gel electrophoresis (SDS-PAGE), and then a band corresponding to OhrR was cut out and treated with trypsin (37° C., 12 hours or more), followed by extraction from the gel. 0.5 μL of the extracted peptides were treated with 0.5 μL of a-cyano-4-hydroxycinnamic acid (CHCA) (in 50% acetonitrile, 1% TFA) and dehydrated, and then subjected to MALDI-TOF analysis. The MADI-TOF analysis was performed using a 4700 Proteomics Analyzer instrument (Applied Biosystems).
# [3] = molecular target: T2, OhrR (organic hydroperoxide regulator) (Bacillus subtilis, UniProt O34777 SEQ:1-147); experiment: BLI; 50 uM OhrR, TBS; binding thickness about 4.3 nm, falls to about 1 nm with CHP plus biothiol; CHP or biothiol alone still binds; conditions: chain copies: 2; label: biotin
# T2 sequence: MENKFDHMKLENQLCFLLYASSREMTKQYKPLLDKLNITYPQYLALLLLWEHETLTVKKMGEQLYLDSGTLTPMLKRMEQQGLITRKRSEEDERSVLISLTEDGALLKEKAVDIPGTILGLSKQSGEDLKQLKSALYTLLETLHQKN
# His6-OhrR = molecular target: T3, His6-OhrR (Bacillus subtilis, UniProt O34777 SEQ:1-147); experiment: plate assay on NeutrAvidin, 5 uM OhrR, TBS, HisProbe-HRP readout; signal reduced by CHP plus biothiol; conditions: tags: His6; chain copies: 2; label: biotin
# T3 sequence: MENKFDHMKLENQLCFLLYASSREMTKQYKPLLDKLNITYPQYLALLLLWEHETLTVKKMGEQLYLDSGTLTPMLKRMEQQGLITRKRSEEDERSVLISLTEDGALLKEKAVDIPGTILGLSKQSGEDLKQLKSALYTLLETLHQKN
# Procedure: 150 μL of 5 mg/mL NeutrAvidin® (Thermo Scientific, USA) diluted with a coating buffer (100 mM Na₂HPO₄, 50 mM citric acid) was put into each well of a transparent 96-well plate, and reacted at 37° C. for 4 to 5 hours, and then an unbound residue was washed with TBS four times. After washing, 300 μL of a Seablock blocking buffer (Thermo Scientific, USA) was put into each well and shaken at room temperature for 2 hours for blocking (process of coating NeutrAvidin-unbound surface to prevent non-specific reaction), followed by re-washing with TBS four times. 100 μL of a biotin-DNA solution diluted with a TBS buffer to 1 μM was put into each well of the blocking-completed microplate, and reacted at room temperature for 1 hour, followed by washing with TBS four times. […]
# as §1
# FLAG-OhrR [4] = molecular target: T4, FLAG-OhrR (Bacillus subtilis, UniProt O34777 SEQ:1-147); experiment: pulldown; anti-FLAG beads, 2 uM OhrR, 100 nM DNA, TBS; released by CHP plus biothiol; conditions: tags: FLAG (DYKDDDDK), expressed in E. coli; chain copies: 2; label: 6-FAM
# T4 sequence: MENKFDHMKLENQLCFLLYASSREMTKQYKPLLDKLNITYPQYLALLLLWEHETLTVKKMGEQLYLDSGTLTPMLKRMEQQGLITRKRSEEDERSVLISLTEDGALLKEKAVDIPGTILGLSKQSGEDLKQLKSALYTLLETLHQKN
# Procedure: First, 30 μL of M2 FLAG affinity beads (Sigma, A2220) were added to respective tubes corresponding to the number of samples, and FLAG-tagged OhrR (2 μM) was bound thereto for 1 hour to reach the total volume of 200 μL (when OhrR is bound to the His6 tag, NTA-Beads can also be used). To remove unbound OhrR, after spin-down, a supernatant was removed, fluorophore or DNAzyme-bound OhrR-binding dsDNA (100 nM, SEQ ID NOs: 1 and 2) was bound to the OhrR-bound beads for 30 minutes. […] Afterward, 200 μL of a supernatant obtained by spin-down was transferred to a 96-well plate, and fluorescence or chemiluminescence was measured. […]
# OhrR-binding dsDNA was bound with a fluorescent factor FAM, and 200 μL of the final supernatant was transferred to a 96 well plate, followed by fluorescence measurement using a multi plate reader (Variokan, Thermo Scientific). In the fluorescence measurement, a fluorescent signal value at a 525 nm emission wavelength obtained at an excitation wavelength of 480 nm was obtained, and a fluorescence value of each well was corrected using a well only containing a buffer without a fluorescent factor as a reference value, followed by comparing these values.
# [5] = molecular target: T2, OhrR (organic hydroperoxide regulator); experiment: FP; 50 nM DNA, 300 nM OhrR; 20 mM Tris pH 8.0, 150 mM NaCl, 5% glycerol; dissociates on CHP plus Cys/Hcy/GSH; conditions: chain copies: 2; label: 6-FAM
# Procedure: The binding activity between OhrR and fluorescence (6FAM, 6-carboxyfluorescein)-labeled OhrR-binding DNA was measured every 10 seconds using an LS55 luminescence spectrometer (PerkinElmer) after dissolution in 3 mL of a buffer at a concentration under the experimental conditions. When OhrR binds to DNA, an anisotropy value (Anis) increases. However, when OhrR is dissociated from DNA, an anisotropy value decreases. In each experiment, three representative biothiols such as cysteine (Cys), homocysteine (Hcy) and glutathione (GSH) were treated at various concentrations (0, 1, 2, 4, 8, 16, 32, and 64 μM). While OhrR was bound to DNA in the presence of only a free biothiol, a real-time dissociation rate of OhrR from DNA was measured by treating a type of representative organic hydroperoxide, that is, cumene hydroperoxide (CHP) (treated at 300 sec).
# FLAG-OhrR [6] = molecular target: T4, FLAG-OhrR; experiment: pulldown; anti-FLAG beads, 5 uM OhrR, 100 nM DNA, TBS; released by CHP plus cysteine, chemiluminescence readout; conditions: tags: FLAG (DYKDDDDK), expressed in E. coli; chain copies: 2; label: 5' biotin on complementary strand; 5' single-stranded peroxidase DNAzyme plus T9 linker overhang
# Procedure: After unbound dsDNA was removed by spin-down, 160 μL of a buffer (Tris Buffered Saline, TBS)->20 μL of LMW biothiols (by concentration)->20 μL of CHP (500 μM) were sequentially added to each tube, followed by shaking for 5 minutes. Afterward, 200 μL of a supernatant obtained by spin-down was transferred to a 96-well plate, and fluorescence or chemiluminescence was measured. The reducing agent (DTT)-untreated sample may be used for measuring free LMW biothiols, and the reducing agent-treated sample may be used for measuring total LMW biothiols [FIG. 9].
# 200 μL of the DNAzyme (5′-GG GTT GGG CGG GAT GGG-3′ [SEQ ID NO: 6], synthesized by IDT)-bound OhrR-binding dsDNA was recovered from a supernatant, and 20 μL of a suspension of NeutrAvidin®-coated beads (Thermo Scientific, USA) was added thereto, followed by shaking at room temperature for 30 minutes. Afterward, washing was performed with a TBS (20 mM Tris, 150 mM NaCl, pH 7.4) buffer four times. To induce DNAzyme activity, 180 μL of a TBS buffer was mixed with 20 μL of 1 μM Hemin (Calbiochem, USA) (in TBS) solution to reach the final volume of 200 μL, the beads were precipitated, and then the resulting solution was left at room temperature under a dark condition for 15 minutes or more. […]
molecule,measurement,setting,value
"N[C@@H](CS)C(=O)O [Cys, cysteine]",absorbance signal reducing effect compared with homocysteine or GSH,OhrR [1],higher absorbance signal reducing effect
same,detection signal level among the measured LMW biothiols,OhrR [2],highest detection signal level
"OhrR operator dsDNA, biotin (dsDNA) DNA 1: TACAATTAAATTGTATACAATTAAATTGTA DNA 2: TACAATTTAATTGTATACAATTTAATTGTA",binding result,[3],binds
same,binding result,His6-OhrR,binds
"OhrR operator dsDNA, 6FAM (dsDNA) DNA 1: TACAATTAAATTGTATACAATTAAATTGTA DNA 2: TACAATTTAATTGTATACAATTTAATTGTA",binding result,FLAG-OhrR [4],binds
same,binding result,[5],binds
DNAzyme-linked OhrR operator dsDNA probe (dsDNA) DNA 1: GGGTTGGGCGGGATGGGTTTTTTTTTTACAATTAAATTGTATACAATTAAATTGTA DNA 2: TACAATTTAATTGTATACAATTTAATTGTA,binding result,FLAG-OhrR [6],binds
